The conditions of this series: Equus caballus, pH 2, Sodium phosphate 10 mM, KCl 1 M; for denaturant midpoint (higher = more stable) / unfolding free energy: 10 °C, Acid.
Where [1] appears, read: Thermal, CD, transition: 3, structure 1AKK.

A word on the Tm: it is the temperature at which the thermal transition is half complete.

Sequence of Cytochrome c L95V, P00004 (P00004 whole entry L95V): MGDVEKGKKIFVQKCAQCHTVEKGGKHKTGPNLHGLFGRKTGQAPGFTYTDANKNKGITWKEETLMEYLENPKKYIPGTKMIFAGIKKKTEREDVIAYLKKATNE
Sequence of Cytochrome c wild type, P00004 (P00004 whole entry): as the sequence (P00004 whole entry L95V) above, with V95L counted along it
Sequence of Cytochrome c L95A, P00004 (P00004 whole entry L95A): as the sequence (P00004 whole entry L95V) above, with V95A counted along it

As for Cytochrome c L95A, P00004, under “CD, structure 1AKK”, the “denaturant midpoint (higher = more stable)” value (from here on “denaturant midpoint”) stood at 0.83 M and the unfolding free energy was 0.1 kcal/mol. For the setting “Fluorescence, structure 1AKK”, the “denaturant midpoint” value is 0.3 M and the unfolding free energy worked out at 0.74 kcal/mol.
On to Cytochrome c L95V, P00004, for which, for the setting “CD, structure 1AKK”, the “denaturant midpoint” value is 0.1 M and the unfolding free energy was 2.59 kcal/mol. In addition, where the note is “Fluorescence, structure 1AKK”, the “denaturant midpoint” value was 0.08 M and the unfolding free energy was determined as 2.7 kcal/mol. Under “83 °C, Thermal, CD, transition: 3, structure 1AKK”, the “ddG of mutation (higher = less stable)” value turned out to be 1.2 kcal/mol. In addition, under setting [1], the Tm was found to be 79 °C; the “change of melting temperature, mutant - wild type (higher = more stable)” value is -4 °C; the “unfolding enthalpy (van 't Hoff)” value was found to be 104 kcal/mol.
Take Cytochrome c wild type, P00004: where the note is “CD”, the “denaturant midpoint” value was found to be 0.03 M and the unfolding free energy worked out at 4.14 kcal/mol. In addition, under “Fluorescence”, the “denaturant midpoint” value is 0.03 M and the unfolding free energy is 3.54 kcal/mol. Besides, for the setting “Thermal, CD, transition: 3”, the Tm turned out to be 83 °C and the “unfolding enthalpy (van 't Hoff)” value was found to be 107 kcal/mol.

The record behind these values is FireProtDB (doi:10.1038/nsb1296-1019).
